Kd, koff and kon data for one molecule are collected here from patent US20050143285A1 (published 2005).

In assay [1] the target is T1, α-bungarotoxin (UniProt P60615 22-95).
T1 sequence: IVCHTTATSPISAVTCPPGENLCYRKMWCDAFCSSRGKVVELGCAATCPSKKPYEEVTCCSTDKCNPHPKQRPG

Assay [2] addresses T1, α-bungarotoxin. Kind of assay: stopped-flow spectrofluorimetry.
Assay [3] deals with T1, α-bungarotoxin. Kind of assay: stopped-flow spectrofluorimetry, excitation 280 nm, emission above 305 nm.

B1: Aplysia californica acetylcholine binding protein (AChBP) (other)
chain: HSQANLMRLKSDLFNRSPMYPGPTKDDPLTVTLGFTLQDIVKADSSTNEVDLVYYEQQRWKLNSLMWDPNEYGNITDFRTSAADIWTPDITAYSSTRPVQVLSPQIAVVTHDGSVMFIPAQRLSFMCDPTGVDSEEGATCAVKFGSWVYSGFEIDLKTDTDQVDLSSYYASSKYEILSATQTRQVQHYSCCPEPYIDVNLVVKFRERRAGNGFFRNLFD
In the assay with α-bungarotoxin [1], B1 had a Kd of 250 nM. Further, in the assay with α-bungarotoxin [2], the koff is 0.32 s⁻¹. Besides, in the assay with α-bungarotoxin [3], the kon worked out at 1e+06 M⁻¹ s⁻¹.

As a reminder, the Kd is the constant that tells how readily two partners part at equilibrium. Lower therefore signals a tighter complex. As usually defined, the koff is the first-order rate constant of dissociation. A word on the kon: it is a measure of how fast the partners come together. Read a high kon as faster complex formation.
